Source: paper PMC10562255, “APOBEC3B regulates R-loops and promotes transcription-associated mutagenesis in cancer”

Target: APOBEC3B (A3B) WT (human, UniProt Q9UH17 1-382)
Assay: EMSA with unlabeled self-competitor; binds ssDNA and ssRNA equally strongly; Competition EMSA: 25 mM HEPES pH 7.4, 50 mM NaCl, 0.4 U/ul RNase inhibitor, room temperature, 5 min binding plus 10 min with competitor; R-loop substrate EMSA:
Conditions: protein: recombinant; tags: C-terminal mycHis; label: 5' IRDye800CW

APOBEC3B (A3B) WT, sequence (Q9UH17 whole entry): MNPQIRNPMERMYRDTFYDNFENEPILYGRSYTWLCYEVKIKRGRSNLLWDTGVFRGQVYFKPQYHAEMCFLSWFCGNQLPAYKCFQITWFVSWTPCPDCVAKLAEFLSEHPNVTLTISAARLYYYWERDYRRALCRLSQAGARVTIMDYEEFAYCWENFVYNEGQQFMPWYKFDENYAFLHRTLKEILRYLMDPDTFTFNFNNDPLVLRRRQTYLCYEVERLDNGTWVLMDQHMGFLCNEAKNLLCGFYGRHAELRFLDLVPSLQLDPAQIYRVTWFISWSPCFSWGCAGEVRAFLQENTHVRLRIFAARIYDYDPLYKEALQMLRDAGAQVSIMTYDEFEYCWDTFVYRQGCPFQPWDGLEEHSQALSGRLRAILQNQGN

Binder	binding result
AUUAGUCAUAUGGAU (ssRNA) [short 15-mer ssRNA (A3B RNA EMSA)]	binds
ATTAGTCATATGGAT (ssDNA) [short 15-mer ssDNA (A3B DNA EMSA)]	binds
